Source: publication doi:10.1101/2021.05.16.444004 (bioRxiv, 2021)

Target: SARS-CoV-2 RBD-SD1 (SARS-CoV-2, Wuhan-Hu-1, UniProt P0DTC2)
Assay: BLI

B1: 54042-4 IgG (antibody, V domains shown)
VH: QITLKESGPTLVKPTQTLTLTCTFSGFSLSTIGVGVSWIRQPPGKALDWLALIYWDDDKRYSPSLKSRLTVTMDTSKNQVVLTLTNMDPVDTATYFCAHGLFSSSDWGGLDVWGQGTTVTVSS
VL: DMQMTQSPSSLSASVGDRVTITCRASQSVFTYLNWYQQKPGKAPKLLIYAASRLQSGVPSRFRGSGSGTDFTLTISSLQPEDFATYYCQQSHSTPFIFGPGTKVDIK
- Kd: 0.0218 µM
